# T1: mouse MIP-1α/CCL3 (mouse, UniProt P10855 24-92)
# T1 construct: also called muMIP-1α
# T1 sequence: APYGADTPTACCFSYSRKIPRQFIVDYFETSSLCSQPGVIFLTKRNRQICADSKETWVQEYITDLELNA
# T2: mouse MIP-1β/CCL4 (mouse, UniProt P14097 24-92)
# T2 construct: also called muMIP-1β
# T2 sequence: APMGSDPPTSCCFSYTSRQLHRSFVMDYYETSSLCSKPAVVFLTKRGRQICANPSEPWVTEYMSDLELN
# T3: human MIP-1α/CCL3 (human, UniProt P10147 24-92)
# T3 construct: also called Biotin-MIP-1α
# T3 sequence: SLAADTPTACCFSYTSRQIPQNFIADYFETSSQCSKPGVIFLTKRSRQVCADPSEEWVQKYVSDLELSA
# T4: I-309
# T4 construct: also called I-309/CCL1; CCL1
# T4 chemokine: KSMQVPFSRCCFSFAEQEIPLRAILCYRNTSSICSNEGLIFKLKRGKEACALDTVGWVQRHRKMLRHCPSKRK
# T5: Fractalkine
# T5 construct: also called Fractalkine/CX3CL1; CX3CL1
# T5 chemokine: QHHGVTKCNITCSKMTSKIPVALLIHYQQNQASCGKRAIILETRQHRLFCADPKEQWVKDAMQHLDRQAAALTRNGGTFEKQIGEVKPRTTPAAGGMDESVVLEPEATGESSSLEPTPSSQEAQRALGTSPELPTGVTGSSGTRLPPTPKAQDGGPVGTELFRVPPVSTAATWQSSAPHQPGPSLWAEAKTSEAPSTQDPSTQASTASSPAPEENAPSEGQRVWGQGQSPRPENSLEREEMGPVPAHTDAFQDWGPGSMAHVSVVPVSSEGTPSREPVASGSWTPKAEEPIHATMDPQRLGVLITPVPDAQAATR
# T6: HCC-4
# T6 construct: also called HCC-4/CCL16; CCL16
# T6 chemokine: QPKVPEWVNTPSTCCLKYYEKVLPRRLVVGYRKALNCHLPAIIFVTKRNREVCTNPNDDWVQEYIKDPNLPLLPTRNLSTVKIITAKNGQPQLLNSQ
# T7: MCP-2
# T7 construct: also called MCP-2/CCL8; CCL8
# T7 chemokine: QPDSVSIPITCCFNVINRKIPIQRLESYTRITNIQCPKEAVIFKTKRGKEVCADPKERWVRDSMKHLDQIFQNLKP
# T8: MDC
# T8 construct: also called MDC/CCL22; CCL22
# T8 chemokine: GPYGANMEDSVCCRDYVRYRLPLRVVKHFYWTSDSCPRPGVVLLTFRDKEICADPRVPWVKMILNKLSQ
# T9: ELC
# T9 construct: also called ELC/MIP-3β/CCL19; CCL19
# T9 chemokine: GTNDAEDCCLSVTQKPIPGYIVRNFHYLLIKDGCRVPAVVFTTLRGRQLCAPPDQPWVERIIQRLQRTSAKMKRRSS
# T10: human HCC-2/MIP-1δ/CCL15 (human, UniProt Q16663 46-113)
# T10 sequence: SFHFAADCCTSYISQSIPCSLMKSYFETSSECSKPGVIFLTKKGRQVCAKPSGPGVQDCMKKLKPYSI
# T11: human HCC-1/CCL14/CCL14a (human, UniProt Q16627 28-93)
# T11 sequence: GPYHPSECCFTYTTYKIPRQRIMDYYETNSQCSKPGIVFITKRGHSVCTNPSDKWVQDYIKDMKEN
# T12: human PARC/CCL18 (human, UniProt P55774 21-89)
# T12 sequence: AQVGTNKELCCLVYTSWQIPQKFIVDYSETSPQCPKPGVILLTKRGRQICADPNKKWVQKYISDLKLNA
# B1: monoclonal antibody 7D12A (antibody, V domains shown)
# VH: EVHLQESGPSLVKPSQTLSLTCSVTGDSITNGYWNWIRKFPGNKLDYMGYISYDGNTYYNPSLKSRFSITRDTSKNQYYLQLNSVTTEDTATYYCSRGDYGTYVMDYWGQGTSVTVSS
# VL: NIVLTQSPVSLAVSLGQRATISCRASESVDSHGNSFMHWYQQKPGQPPKLLIYLASNLESGVPARFTGGGSGSDFTLTIDPVEADDVGTYYCQQNNEDPYTFGGGTKLEIK
# notes: also called MAb 7D12A
# B2: monoclonal antibody 18V4F (antibody, V domains shown)
# VH: QVQLKESGPGLVAPSQSLSITCTVSGFSLTGYGIHWVRQPPGKGLEWLGVIWPGGGTNYNSALMSRLSISKDNSKSQVFLKMNSLQTDDTAMYYCARGPLITTEVSMDYWGQGTSVTVSS
# VL: QAVVTQESALTTSPGETVTLTCRSNTGAVTTSNYANWVQEKPDHLFTGLIGGTNNRAPGVPARFSGSLIGDKAALTITGAQTEDEAIYFCALWYSNHWVFGGGTKLTVLG
# notes: also called MAb 18V4F
# Legend:
# mouse MIP-1α/CCL3 = molecular target: T1, mouse MIP-1α/CCL3; experiment: MSD electrochemiluminescence, chemokine coated at 1 µg/mL
# mouse MIP-1β/CCL4 = molecular target: T2, mouse MIP-1β/CCL4; experiment: as above
# mouse RANTES/CCL5 = molecular target: T13, mouse RANTES/CCL5 (mouse, UniProt P30882 24-91); experiment: as above
# T13 construct: also called muRANTES
# human MIP-1α/CCL3 = molecular target: T3, human MIP-1α/CCL3; experiment: ELISA, hybridoma fusion-well supernatant on coated MIP-1α; background approx. 0.150
# I-309 = molecular target: T4, I-309; experiment: MSD electrochemiluminescence assay; chemokine coated at 1 µg/mL, 7D12A at 3 µg/mL; background = BSA
# IL-8 = molecular target: T14, IL-8; experiment: as above
# T14 construct: also called IL-8/CXCL8; CXCL8
# Fractalkine = molecular target: T5, Fractalkine; experiment: as above
# HCC-4 = molecular target: T6, HCC-4; experiment: as above
# MCP-2 = molecular target: T7, MCP-2; experiment: as above
# MCP-4 = molecular target: T15, MCP-4; experiment: as above
# T15 construct: also called MCP-4/CCL13; CCL13
# Eotaxin = molecular target: T16, Eotaxin; experiment: as above
# T16 construct: also called Eotaxin/CCL11; CCL11
# MDC = molecular target: T8, MDC; experiment: as above
# ELC = molecular target: T9, ELC; experiment: as above
# human HCC-2/MIP-1δ/CCL15 = molecular target: T10, human HCC-2/MIP-1δ/CCL15; experiment: as above
# human HCC-1/CCL14/CCL14a = molecular target: T11, human HCC-1/CCL14/CCL14a; experiment: as above
# human PARC/CCL18 = molecular target: T12, human PARC/CCL18; experiment: as above
# human MCP-1/CCL2 = molecular target: T17, human MCP-1/CCL2 (human, UniProt P13500 24-99); experiment: as above
# T17 construct: also called Biotin-MCP1
# T17 sequence (P13500 24-99 limits assumed): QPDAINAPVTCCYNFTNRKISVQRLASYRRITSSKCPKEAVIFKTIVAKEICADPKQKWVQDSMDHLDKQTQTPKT
# T13 sequence (P30882 24-91 limits assumed): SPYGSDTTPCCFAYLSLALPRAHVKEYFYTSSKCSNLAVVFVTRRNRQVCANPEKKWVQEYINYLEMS
# T14 sequence (chemokine, as listed by the source): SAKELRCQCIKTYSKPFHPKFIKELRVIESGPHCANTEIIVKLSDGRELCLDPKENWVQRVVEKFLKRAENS
# T16 sequence (chemokine, as listed by the source): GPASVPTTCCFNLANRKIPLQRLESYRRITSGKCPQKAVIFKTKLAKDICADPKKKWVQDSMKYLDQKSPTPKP
# T15 sequence (chemokine, as listed by the source): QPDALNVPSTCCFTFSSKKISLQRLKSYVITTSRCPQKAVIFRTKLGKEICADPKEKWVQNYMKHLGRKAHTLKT
Binder,binding result (mouse MIP-1α/CCL3),binding result (mouse MIP-1β/CCL4),binding result (mouse RANTES/CCL5),ELISA signal (human MIP-1α/CCL3),binding result (I-309),binding result (IL-8),binding result (Fractalkine),binding result (HCC-4),binding result (MCP-2),binding result (MCP-4),binding result (Eotaxin),binding result (MDC),binding result (ELC),binding result (human HCC-2/MIP-1δ/CCL15),binding result (human HCC-1/CCL14/CCL14a),binding result (human PARC/CCL18),binding result (human MCP-1/CCL2)
B1,no binding (tested: 3 µg/mL),no binding (tested: 3 µg/mL),no binding (tested: 3 µg/mL),1.47,no binding (tested: 3 µg/mL),no binding (tested: 3 µg/mL),no binding (tested: 3 µg/mL),no binding (tested: 3 µg/mL),no binding (tested: 3 µg/mL),no binding (tested: 3 µg/mL),no binding (tested: 3 µg/mL),no binding (tested: 3 µg/mL),no binding (tested: 3 µg/mL),no binding (tested: 3 µg/mL),no binding (tested: 3 µg/mL),no binding (tested: 3 µg/mL),no binding (tested: 3 µg/mL)
B2,no binding (tested: 3 µg/mL),no binding (tested: 3 µg/mL),no binding (tested: 3 µg/mL),,,,,,,,,,,,,,
